Columns and labels:
[1] = target: SARS-CoV-2 RBD variant Kappa (L452R, E484Q) (Sino Biological) (SARS-CoV-2) (UniProt P0DTC2); experiment: BLI, affinity format: response at highest analyte concentration
[2] = target: SARS-CoV-2 RBD variant Delta (L452R, T478K) (Sino Biological) (SARS-CoV-2) (UniProt P0DTC2); experiment: as above
[3] = target: SARS-CoV-2 RBD variant Alpha (N501Y) (Sino Biological) (SARS-CoV-2) (UniProt P0DTC2); experiment: as above
[4] = target: SARS-CoV-2 RBD variant Lambda (L452Q, F490S) (Sino Biological) (SARS-CoV-2) (UniProt P0DTC2); experiment: as above
[5] = target: SARS-CoV-2 RBD variant Gamma (K417T, E484K, N501Y) (Sino Biological) (SARS-CoV-2) (UniProt P0DTC2); experiment: as above
[6] = target: SARS-CoV-2 RBD variant Beta (K417N, E484K, N501Y) (Sino Biological) (SARS-CoV-2) (UniProt P0DTC2); experiment: as above
[7] = target: SARS-CoV-2 RBD variant Kappa (L452R, E484Q) (Sino Biological) (SARS-CoV-2) (UniProt P0DTC2); experiment: BLI, affinity format: binder on AHC sensor, RBD in solution
[8] = target: SARS-CoV-2 RBD variant Delta (L452R, T478K) (Sino Biological) (SARS-CoV-2) (UniProt P0DTC2); experiment: as above
[9] = target: SARS-CoV-2 RBD variant Alpha (N501Y) (Sino Biological) (SARS-CoV-2) (UniProt P0DTC2); experiment: as above
[10] = target: SARS-CoV-2 RBD variant Lambda (L452Q, F490S) (Sino Biological) (SARS-CoV-2) (UniProt P0DTC2); experiment: as above
[11] = target: SARS-CoV-2 RBD variant Gamma (K417T, E484K, N501Y) (Sino Biological) (SARS-CoV-2) (UniProt P0DTC2); experiment: as above
[12] = target: SARS-CoV-2 RBD variant Beta (K417N, E484K, N501Y) (Sino Biological) (SARS-CoV-2) (UniProt P0DTC2); experiment: as above
[13] = target: SARS-CoV-2 RBD variant Kappa (L452R, E484Q) (Sino Biological) (SARS-CoV-2) (UniProt P0DTC2); experiment: BLI, avidity format: response at highest analyte concentration
[14] = target: SARS-CoV-2 RBD variant Delta (L452R, T478K) (Sino Biological) (SARS-CoV-2) (UniProt P0DTC2); experiment: as above
[15] = target: SARS-CoV-2 RBD variant Alpha (N501Y) (Sino Biological) (SARS-CoV-2) (UniProt P0DTC2); experiment: as above
[16] = target: SARS-CoV-2 RBD variant Lambda (L452Q, F490S) (Sino Biological) (SARS-CoV-2) (UniProt P0DTC2); experiment: as above
[17] = target: SARS-CoV-2 RBD variant Gamma (K417T, E484K, N501Y) (Sino Biological) (SARS-CoV-2) (UniProt P0DTC2); experiment: as above
[18] = target: SARS-CoV-2 RBD variant Beta (K417N, E484K, N501Y) (Sino Biological) (SARS-CoV-2) (UniProt P0DTC2); experiment: as above
[19] = target: SARS-CoV-2 RBD variant Kappa (L452R, E484Q) (Sino Biological) (SARS-CoV-2) (UniProt P0DTC2); experiment: BLI, avidity format: biotinylated RBD on SA sensor, binder in solution
[20] = target: SARS-CoV-2 RBD variant Delta (L452R, T478K) (Sino Biological) (SARS-CoV-2) (UniProt P0DTC2); experiment: as above
[21] = target: SARS-CoV-2 RBD variant Alpha (N501Y) (Sino Biological) (SARS-CoV-2) (UniProt P0DTC2); experiment: as above
[22] = target: SARS-CoV-2 RBD variant Lambda (L452Q, F490S) (Sino Biological) (SARS-CoV-2) (UniProt P0DTC2); experiment: as above
[23] = target: SARS-CoV-2 RBD variant Gamma (K417T, E484K, N501Y) (Sino Biological) (SARS-CoV-2) (UniProt P0DTC2); experiment: as above
[24] = target: SARS-CoV-2 RBD variant Beta (K417N, E484K, N501Y) (Sino Biological) (SARS-CoV-2) (UniProt P0DTC2); experiment: as above

Question: Which results are given for Cilgavimab (antibody)?
Answer: Response [1]: 0.322 nm shift; Response [2]: 0.357 nm shift; Response [3]: 0.452 nm shift; Response [4]: 0.236 nm shift; Response [5]: 0.428 nm shift; Response [6]: 0.438 nm shift; Kd [7]: 9.89 nM; koff [7]: 0.00364 s⁻¹; kon [7]: 368000 M⁻¹ s⁻¹; Kd [8]: 7.34 nM; koff [8]: 0.00321 s⁻¹; kon [8]: 438000 M⁻¹ s⁻¹; Kd [9]: 2.44 nM; koff [9]: 0.000981 s⁻¹; kon [9]: 401000 M⁻¹ s⁻¹; Kd [10]: 9.81 nM; koff [10]: 0.00348 s⁻¹; kon [10]: 354000 M⁻¹ s⁻¹; Kd [11]: 2.82 nM; koff [11]: 0.0011 s⁻¹; kon [11]: 392000 M⁻¹ s⁻¹; Kd [12]: 1.43 nM; koff [12]: 0.000631 s⁻¹; kon [12]: 441000 M⁻¹ s⁻¹; Response [13]: 0.628 nm shift; Response [14]: 0.525 nm shift; Response [15]: 0.697 nm shift; Response [16]: 0.727 nm shift; Response [17]: 0.657 nm shift; Response [18]: 0.473 nm shift; Kd [19]: 0.204 nM; koff [19]: 6.08e-05 s⁻¹; kon [19]: 298000 M⁻¹ s⁻¹; Kd [20]: 0.0481 nM; koff [20]: 1.61e-05 s⁻¹; kon [20]: 335000 M⁻¹ s⁻¹; Kd [21]: 0.124 nM; koff [21]: 4.26e-05 s⁻¹; kon [21]: 344000 M⁻¹ s⁻¹; Kd [22]: 0.0815 nM; koff [22]: 2.37e-05 s⁻¹; kon [22]: 291000 M⁻¹ s⁻¹; Kd [23]: 0.193 nM; koff [23]: 7.42e-05 s⁻¹; kon [23]: 385000 M⁻¹ s⁻¹; Kd [24]: 0.273 nM; koff [24]: 9.67e-05 s⁻¹; kon [24]: 355000 M⁻¹ s⁻¹

Source: patent publication US20230365956A1
